Measurements as given in paper PMC9284966, “Construction of a T7 phage display nanobody library for bio-panning and identification of chicken dendritic cell-specific binding nanobodies” (Scientific Reports, 2022).

Key:
Test in all cases: affinity purification with mass spectrometry; purified GST-VHH fusion protein as bait with lysate of immature chicken bone marrow DCs (day 6); in vitro pull-down, then HPLC-MS (done by ZoonBio Biotechnology)
Details in all cases: one partner purified
[1] = target: T1, BTB domain-containing protein (Gallus gallus, UniProt A0A1D5NYT7)
T1 construct: BTB domain-containing protein, Gallus gallus, GN = KLHL26; also called KLHL26; source: endogenous, chicken bone marrow DC lysate

[2] = target: T2, Protein disulfide-isomerase (Gallus gallus (SPF chick), UniProt P09102)
T2 construct: Protein disulfide-isomerase, Gallus gallus, GN = P4HB; also called P4HB; source: endogenous, chicken bone marrow DC lysate

[3] = target: T3, SET domain-containing protein (Gallus gallus, UniProt A0A1D5PNH9)
T3 construct: SET domain-containing protein, Gallus gallus, GN = PRDM11; also called PRDM11; source: endogenous, chicken bone marrow DC lysate

[4] = target: T4, Calreticulin (Gallus gallus, UniProt A0A8V0X980)
T4 construct: Calreticulin, Gallus gallus, GN = CALR; source: endogenous, chicken bone marrow DC lysate

[5] = target: T5, Extracellular serine/threonine protein kinase FAM20C isoform X1 (Gallus gallus, UniProt A0A3G2WC03)
T5 construct: Extracellular serine/threonine protein kinase FAM20C isoform X1, Gallus gallus; no GN field printed, the symbol stands in the name; source: endogenous, chicken bone marrow DC lysate

[6] = target: T6, Glutathione S-transferase (Gallus gallus (SPF chick), UniProt Q08392)
T6 construct: Glutathione S-transferase, Gallus gallus; no gene name printed; source: endogenous, chicken bone marrow DC lysate

[7] = target: T7, Uncharacterized protein GN = LCP1 (Gallus gallus (SPF chick), UniProt Q5ZLW0)
T7 construct: Uncharacterized protein, Gallus gallus, GN = LCP1; source: endogenous, chicken bone marrow DC lysate

[8] = target: T8, Uncharacterized protein GN = ERCC5 (Gallus gallus (SPF chick), UniProt F1P266)
T8 construct: Uncharacterized protein, Gallus gallus, GN = ERCC5; source: endogenous, chicken bone marrow DC lysate

[9] = target: T9, Uncharacterized protein GN = ZBTB26 (Gallus gallus, UniProt A0A1D5NTV7)
T9 construct: Uncharacterized protein, Gallus gallus, GN = ZBTB26; source: endogenous, chicken bone marrow DC lysate

[10] = target: T10, E3 ubiquitin-protein ligase TRIM71 (Gallus gallus (SPF chick), UniProt Q1PRL4)
T10 construct: E3 ubiquitin-protein ligase TRIM71, Gallus gallus, GN = TRIM71; source: endogenous, chicken bone marrow DC lysate

[11] = target: T11, Collagen alpha-2(VI) chain (Gallus gallus (SPF chick), UniProt P15988)
T11 construct: Collagen alpha-2(VI) chain, Gallus gallus, GN = COL6A2; also called COL6A2; source: endogenous, chicken bone marrow DC lysate

[12] = target: T12, zf-C2H2_7 domain-containing protein (Gallus gallus (SPF chick), UniProt A0A8V0Z1I9)
T12 construct: zf-C2H2_7 domain-containing protein, Gallus gallus, GN = PRR35; also called PRR35; source: endogenous, chicken bone marrow DC lysate

[13] = target: T13, RING-type E3 ubiquitin transferase (Gallus gallus (endogenous, immature …, UniProt A0A8V0YPN2))
T13 construct: RING-type E3 ubiquitin transferase, Gallus gallus, GN = UHRF2; also called UHRF2; source: endogenous, chicken bone marrow DC lysate

[14] = target: T14, Uncharacterized protein GN = RAP1A (Gallus gallus (SPF chick), UniProt F1NSA8)
T14 construct: Uncharacterized protein, Gallus gallus, GN = RAP1A; source: endogenous, chicken bone marrow DC lysate

[15] = target: T15, RanGAP1_C domain-containing protein (Gallus gallus, UniProt A0A8V0YG17)
T15 construct: RanGAP1_C domain-containing protein, Gallus gallus, GN = RANGAP1; source: endogenous, chicken bone marrow DC lysate

[16] = target: T16, Uncharacterized protein GN = GPC2 (Gallus gallus (SPF chick), UniProt A0A8V0ZXK1)
T16 construct: Uncharacterized protein, Gallus gallus, GN = GPC2; source: endogenous, chicken bone marrow DC lysate

[17] = target: T17, UBX domain-containing protein 2B (Gallus gallus, UniProt A0A1D5P1A7)
T17 construct: UBX domain-containing protein 2B, Gallus gallus, GN = UBXN2B; also called UBXN2B; source: endogenous, chicken bone marrow DC lysate

[18] = target: T18, Voltage-dependent anion-selective channel protein 1 (Gallus gallus, UniProt E1BYN7)
T18 construct: Voltage-dependent anion-selective channel protein 1, Gallus gallus, GN = VDAC1; also called VDAC1; VDAC; source: endogenous, chicken bone marrow DC lysate

Measured: binding result

T2 sequence (P09102 23-515): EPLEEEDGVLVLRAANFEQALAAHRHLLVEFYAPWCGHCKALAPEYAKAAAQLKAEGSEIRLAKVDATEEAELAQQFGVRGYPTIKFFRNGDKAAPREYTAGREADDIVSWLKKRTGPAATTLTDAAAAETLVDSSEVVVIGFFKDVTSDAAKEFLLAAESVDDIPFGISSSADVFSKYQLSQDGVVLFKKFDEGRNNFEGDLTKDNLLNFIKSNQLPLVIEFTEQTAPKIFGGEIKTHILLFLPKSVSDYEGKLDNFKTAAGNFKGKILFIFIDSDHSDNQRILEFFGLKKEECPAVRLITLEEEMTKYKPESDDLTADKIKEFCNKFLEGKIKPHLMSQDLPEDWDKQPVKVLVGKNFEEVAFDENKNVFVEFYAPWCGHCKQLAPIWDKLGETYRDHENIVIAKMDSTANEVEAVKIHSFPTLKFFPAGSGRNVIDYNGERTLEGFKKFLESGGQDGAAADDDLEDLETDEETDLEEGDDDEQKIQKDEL
T17 sequence (Q5ZLK2 whole entry, the tested form may be a part): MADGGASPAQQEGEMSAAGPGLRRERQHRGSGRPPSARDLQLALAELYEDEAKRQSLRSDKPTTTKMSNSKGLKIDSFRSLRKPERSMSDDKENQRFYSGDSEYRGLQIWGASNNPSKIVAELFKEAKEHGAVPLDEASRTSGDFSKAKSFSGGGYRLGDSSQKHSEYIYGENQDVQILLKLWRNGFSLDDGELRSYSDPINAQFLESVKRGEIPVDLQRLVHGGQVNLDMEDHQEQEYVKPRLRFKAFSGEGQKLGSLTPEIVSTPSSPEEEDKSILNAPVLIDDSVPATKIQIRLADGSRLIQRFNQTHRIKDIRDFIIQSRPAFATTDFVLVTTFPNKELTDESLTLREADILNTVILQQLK
T6 sequence (Q08392 whole entry): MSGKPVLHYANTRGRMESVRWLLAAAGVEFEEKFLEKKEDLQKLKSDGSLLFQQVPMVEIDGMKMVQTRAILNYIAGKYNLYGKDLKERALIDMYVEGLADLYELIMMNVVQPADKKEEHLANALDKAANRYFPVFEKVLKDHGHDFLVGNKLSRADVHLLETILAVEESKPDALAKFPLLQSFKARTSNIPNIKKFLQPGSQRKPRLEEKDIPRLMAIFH
T9 sequence (A0A1D5NTV7 entry or part of it): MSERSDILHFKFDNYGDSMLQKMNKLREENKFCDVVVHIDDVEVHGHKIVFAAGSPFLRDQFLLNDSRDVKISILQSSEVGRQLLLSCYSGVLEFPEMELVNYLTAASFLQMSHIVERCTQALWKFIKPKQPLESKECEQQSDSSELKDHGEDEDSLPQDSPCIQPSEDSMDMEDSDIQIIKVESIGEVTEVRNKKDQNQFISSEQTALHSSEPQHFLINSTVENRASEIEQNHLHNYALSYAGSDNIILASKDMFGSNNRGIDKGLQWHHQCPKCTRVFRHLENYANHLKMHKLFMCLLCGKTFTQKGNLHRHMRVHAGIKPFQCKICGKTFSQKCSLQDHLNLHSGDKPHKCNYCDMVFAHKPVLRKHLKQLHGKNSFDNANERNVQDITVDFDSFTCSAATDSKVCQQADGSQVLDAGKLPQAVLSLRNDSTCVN
T1 sequence (A0A1D5NYT7 entry or part of it): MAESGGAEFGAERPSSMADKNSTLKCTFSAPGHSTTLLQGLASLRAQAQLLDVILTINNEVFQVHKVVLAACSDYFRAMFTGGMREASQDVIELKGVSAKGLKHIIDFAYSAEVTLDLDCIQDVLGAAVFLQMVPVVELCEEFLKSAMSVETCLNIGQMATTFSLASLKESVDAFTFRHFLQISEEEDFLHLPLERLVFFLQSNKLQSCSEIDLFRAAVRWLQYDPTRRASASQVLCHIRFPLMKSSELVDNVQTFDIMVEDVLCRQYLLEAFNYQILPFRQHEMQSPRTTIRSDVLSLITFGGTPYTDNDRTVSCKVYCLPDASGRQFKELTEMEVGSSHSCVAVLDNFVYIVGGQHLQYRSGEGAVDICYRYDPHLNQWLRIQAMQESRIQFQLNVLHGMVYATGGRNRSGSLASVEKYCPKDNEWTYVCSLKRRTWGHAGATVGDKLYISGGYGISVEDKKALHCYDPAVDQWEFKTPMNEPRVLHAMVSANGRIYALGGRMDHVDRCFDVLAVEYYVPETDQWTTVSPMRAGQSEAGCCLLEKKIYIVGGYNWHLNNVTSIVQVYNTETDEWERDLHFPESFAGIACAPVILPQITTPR
T8 sequence (F1P266 entry or part of it): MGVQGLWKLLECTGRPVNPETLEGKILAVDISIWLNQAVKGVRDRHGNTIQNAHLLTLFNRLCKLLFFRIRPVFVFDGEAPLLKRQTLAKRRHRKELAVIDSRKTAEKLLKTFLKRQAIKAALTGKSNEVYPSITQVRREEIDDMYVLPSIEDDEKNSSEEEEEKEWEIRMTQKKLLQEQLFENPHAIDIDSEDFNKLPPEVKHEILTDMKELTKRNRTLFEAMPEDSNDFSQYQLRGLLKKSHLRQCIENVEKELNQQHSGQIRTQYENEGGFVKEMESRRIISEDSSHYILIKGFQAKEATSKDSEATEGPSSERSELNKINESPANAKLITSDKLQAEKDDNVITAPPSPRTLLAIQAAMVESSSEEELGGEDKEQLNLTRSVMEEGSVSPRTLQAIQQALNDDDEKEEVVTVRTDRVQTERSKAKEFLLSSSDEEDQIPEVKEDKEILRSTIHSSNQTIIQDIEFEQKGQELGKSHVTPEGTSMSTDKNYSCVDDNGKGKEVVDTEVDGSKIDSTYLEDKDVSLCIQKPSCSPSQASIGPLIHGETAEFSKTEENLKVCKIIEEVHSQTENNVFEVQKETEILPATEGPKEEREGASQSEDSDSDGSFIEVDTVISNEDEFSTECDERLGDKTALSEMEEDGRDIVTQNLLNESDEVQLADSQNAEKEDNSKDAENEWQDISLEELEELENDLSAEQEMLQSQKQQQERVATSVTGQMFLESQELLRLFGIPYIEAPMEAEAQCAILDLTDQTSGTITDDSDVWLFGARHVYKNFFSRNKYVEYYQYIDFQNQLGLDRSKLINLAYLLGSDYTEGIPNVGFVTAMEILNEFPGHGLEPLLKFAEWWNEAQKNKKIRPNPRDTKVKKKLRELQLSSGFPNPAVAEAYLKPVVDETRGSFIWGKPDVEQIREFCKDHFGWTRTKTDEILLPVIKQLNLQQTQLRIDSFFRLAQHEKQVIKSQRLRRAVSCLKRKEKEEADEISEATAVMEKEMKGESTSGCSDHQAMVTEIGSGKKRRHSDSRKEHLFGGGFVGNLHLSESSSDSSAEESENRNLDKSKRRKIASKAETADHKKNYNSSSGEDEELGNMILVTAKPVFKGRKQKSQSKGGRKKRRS
T10 sequence (Q1PRL4 whole entry): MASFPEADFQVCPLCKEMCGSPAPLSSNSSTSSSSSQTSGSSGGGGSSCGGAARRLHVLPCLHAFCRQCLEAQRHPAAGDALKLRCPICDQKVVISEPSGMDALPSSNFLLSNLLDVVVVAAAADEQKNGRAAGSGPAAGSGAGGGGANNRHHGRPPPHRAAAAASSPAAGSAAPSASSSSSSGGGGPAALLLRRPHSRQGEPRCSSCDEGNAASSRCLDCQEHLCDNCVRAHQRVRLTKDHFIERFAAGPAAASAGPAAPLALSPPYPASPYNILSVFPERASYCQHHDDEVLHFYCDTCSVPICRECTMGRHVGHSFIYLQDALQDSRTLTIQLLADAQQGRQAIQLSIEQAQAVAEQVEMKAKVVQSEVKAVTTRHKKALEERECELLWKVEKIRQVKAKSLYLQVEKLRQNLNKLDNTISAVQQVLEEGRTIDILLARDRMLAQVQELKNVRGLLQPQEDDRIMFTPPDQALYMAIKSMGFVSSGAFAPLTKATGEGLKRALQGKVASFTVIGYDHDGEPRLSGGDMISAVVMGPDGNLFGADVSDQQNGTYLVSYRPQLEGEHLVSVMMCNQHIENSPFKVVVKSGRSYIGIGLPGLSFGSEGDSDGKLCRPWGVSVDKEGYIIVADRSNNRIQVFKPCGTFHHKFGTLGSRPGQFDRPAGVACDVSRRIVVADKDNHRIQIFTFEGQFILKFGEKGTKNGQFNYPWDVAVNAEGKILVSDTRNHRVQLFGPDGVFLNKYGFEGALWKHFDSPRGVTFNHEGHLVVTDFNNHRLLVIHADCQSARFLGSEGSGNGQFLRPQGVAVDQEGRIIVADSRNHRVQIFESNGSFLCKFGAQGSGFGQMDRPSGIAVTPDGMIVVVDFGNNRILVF
T12 sequence (A0A8V0Z1I9 entry or part of it): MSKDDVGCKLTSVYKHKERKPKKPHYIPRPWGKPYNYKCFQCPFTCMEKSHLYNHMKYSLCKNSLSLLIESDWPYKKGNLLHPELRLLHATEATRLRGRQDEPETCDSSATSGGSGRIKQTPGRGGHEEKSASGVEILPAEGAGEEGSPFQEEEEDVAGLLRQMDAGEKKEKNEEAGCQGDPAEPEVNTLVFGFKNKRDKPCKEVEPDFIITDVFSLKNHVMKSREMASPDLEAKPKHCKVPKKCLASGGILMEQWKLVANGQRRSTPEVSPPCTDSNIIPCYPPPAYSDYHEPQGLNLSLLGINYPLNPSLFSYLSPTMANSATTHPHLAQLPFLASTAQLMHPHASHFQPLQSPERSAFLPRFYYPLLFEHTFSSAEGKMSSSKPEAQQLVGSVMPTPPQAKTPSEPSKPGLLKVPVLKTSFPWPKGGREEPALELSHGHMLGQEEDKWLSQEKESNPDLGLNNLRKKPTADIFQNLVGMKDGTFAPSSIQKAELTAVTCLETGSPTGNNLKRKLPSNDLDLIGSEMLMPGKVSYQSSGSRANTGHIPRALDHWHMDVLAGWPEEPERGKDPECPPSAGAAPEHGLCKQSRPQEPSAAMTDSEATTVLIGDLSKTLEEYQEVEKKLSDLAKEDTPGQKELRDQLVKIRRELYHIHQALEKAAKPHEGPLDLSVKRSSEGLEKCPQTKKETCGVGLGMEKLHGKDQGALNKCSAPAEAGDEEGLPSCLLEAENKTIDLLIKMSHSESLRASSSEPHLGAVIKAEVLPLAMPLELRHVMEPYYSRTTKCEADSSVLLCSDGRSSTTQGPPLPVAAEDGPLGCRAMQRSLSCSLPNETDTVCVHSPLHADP

B1: GST-VHH-54 (VHH)
VHH: QVQLVESGGGLVQPGGSLTLSCAASGFTFSKYPMTWVRQAPGKGLEWVSTITSGGTTTYADSVKGRFTISRDNAKDTLYLQMNSLKPEDTAIYYCAELGLPPGGQGTQVTVSS
notes: VHH from a non-immunised alpaca library; VHH gene of phage-54 fused with the GST gene in pGEX-4T-1; also called VVH-54; VVH54; source: expressed from pGEX-4T-1 and purified
binds: [1] | [2] | [3] | [4] | [5] | [6] | [7] | [8] | [9] | [10]

B2: GST-VHH-74 (VHH)
VHH: QVQLVESGGGLVQEGGSLRLSCVVSGSRDSINAMGWYRQAPGKQRELVATVAGVGSTNYAASVKGRFSISMDNAKNTAYLQMNSLKPEDTAVYYCVADLRGSDRWLWAQGTQVTVSA
notes: VHH from a non-immunised alpaca library; VHH gene of phage-74 fused with the GST gene in pGEX-4T-1; also called VVH-74; source: expressed from pGEX-4T-1 and purified
binds: [11] | [12] | [13] | [14] | [15] | [16] | [17] | [18]
